Measurements from patent publication US20020161202A1, “Apo-2DcR” (Genentech, Inc., priority 1997, published 2002).

B1: Apo-2DcR: full-length native sequence human Apo-2DcR polypeptide, 259 amino acids, GPI-anchored TNFR family member; expressed by transfection (protein)
chain: ATTARQEEVPQQTVAPQQQRHSFKGEECPAGSHRSEHTGACNPCTEGVDYTNASNNEPSCFPCTVCKSDQKHKSSCTMTRDTVCQCKEGTFRNENSPEMCRKCSRCPSGEVQVSNCTSWDDIQCVEEFGANATVETPAAEETMNTSPGTPAPAAEETMNTSPGTPAPAAEETMTTSPGTPAPAAEETMTTSPGTPAPAAEETMTTSPGTPA
B2: Apo-3/DR3: full length native sequence human TNFR family polypeptide with cytoplasmic death domain; expressed by transfection (protein, UniProt Q93038 1-417, looked up)
chain: MEQRPRGCAAVAAALLLVLLGARAQGGTRSPRCDCAGDFHKKIGLFCCRGCPAGHYLKAPCTEPCGNSTCLVCPQDTFLAWENHHNSECARCQACDEQASQVALENCSAVADTRCGCKPGWFVECQVSQCVSSSPFYCQPCLDCGALHRHTRLLCSRRDTDCGTCLPGFYEHGDGCVSCPTSTLGSCPERCAAVCGWRQMFWVQVLLAGLVVPLLLGATLTYTYRHCWPHKPLVTADEAGMEALTPPPATHLSPLDSAHTLLAPPDSSEKICTVQLVGNSWTPGYPETQEALCPQVTWSWDQLPSRALGPAAAPTLSPESPAGSPAMMLQPGPQLYDVMDAVPARRWKEFVRTLGLREAEIEAVEVEIGRFRDQQYEMLKRWRQQQPAGLGAVYAALERMGLDGCVEDLRSRLQRGP
modifications: full-length
notes: expressed by transfection

Legend:
Apo-2L = test: Binding of radioiodinated Apo-2L to Apo-2DcR-transfected 293 cells; conditions: 125I-Apo-2L; 293 cells transfected with full-length Apo-2DcR vs pRK5; FIG. 4
Apo-2L, sequence (P50591 114-281 limits assumed): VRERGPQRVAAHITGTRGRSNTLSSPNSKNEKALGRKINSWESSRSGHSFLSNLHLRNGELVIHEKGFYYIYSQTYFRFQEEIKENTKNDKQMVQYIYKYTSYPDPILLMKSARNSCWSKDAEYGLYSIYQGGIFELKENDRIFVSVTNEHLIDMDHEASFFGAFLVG
Apo-2L, sequence (O14798 26-236 partner limits assumed): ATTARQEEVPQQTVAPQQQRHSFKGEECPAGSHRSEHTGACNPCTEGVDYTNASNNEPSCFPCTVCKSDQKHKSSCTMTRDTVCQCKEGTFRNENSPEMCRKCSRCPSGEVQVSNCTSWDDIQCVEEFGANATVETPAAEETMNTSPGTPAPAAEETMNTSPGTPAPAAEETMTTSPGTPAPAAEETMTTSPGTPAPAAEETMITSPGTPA
Procedure: To test whether Apo-2DcR binds to Apo-2L, and to assess whether Apo-2DcR is GPI-linked, binding of radioiodinated Apo-2L to Apo-2DcR-transfected 293 cells was analyzed. The effect of pre-treatment of the cells with phosphatidylinositol-specific phospholipase C (PI-PLC) on the binding was also analyzed.
Human 293 cells (ATCC CRL 1573) were plated in 100 mm plates (1×10^6 cells/plate) and transfected with 20 μg/plate pRK5 or pRK5 encoding the full-length Apo-2DcR (described in Example 1, ATCC deposit 209087) using calcium phosphate precipitation. After 24 hours, the cells were harvested in PBS/10 mM EDTA, washed in phosphate buffered saline (PBS), resuspended in 2 ml PBS per original plate and divided into two 1 ml aliquots per transfection. PI-PLC [Treanor et al., Nature, 382:80-83 (1996)] (1 μg/ml) was added to one of the two aliquots derived from each transfection, and the cells were incubated 1 hour at 37° C. The cells were washed and respuspended in 1 ml PBS containing 1% BSA (Sigma), and 0.04 ml aliquots were placed into tubes in triplicate. […] After a 1 hour incubation at room temperature, the cells were washed in ice cold PBS, pelleted, and counted for radioactivity.

Human 293 cells = test: Apo-2L apoptosis induction in Apo-2DcR-transfected 293 cells (morphology of GFP-positive cells); format: cell-based; conditions: 293 cells transfected with pRK5-hApo-2DcR; Apo-2L 0.5 μg/ml; examined over 6 hours; FIG. 5
Procedure: Human 293 cells, which express both DR4 and Apo-2 mRNA (data not shown), were plated in 100 mm plates (1×10^6 cells/plate) and transfected with 3 μg per plate pRK encoding green fluorescent protein (GFP; purchased from Clontech) together with 20 μg/plate pRK5 or pRK5-hApo-2DcR (see Example 2) using calcium phosphate precipitation. After 18 hours, the cells were treated with PBS or with Apo-2L (Pitti et al., supra, 0.5 μg/ml) and examined over 6 hours under a fluorescence microscope equipped with Hoffman optics (which enables clear viewing of non-fixed cells on plastic). GFP-positive cells were identified by green fluorescence and scored for apoptosis by morphologic criteria such as membrane blebbing and cytoplasmic condensation.

NF-κB [1] = test: Activation of NF-κB by Apo-2L in Apo-2DcR-transfected 293 cells (electrophoretic mobility shift assay); format: cell-based, human; conditions: 293 cells transfected with pRK5-hApo-2DcR, 18 hours; Apo-2L 0.5 μg/ml; FIG. 6
Procedure: In a similar experiment, the 293 cells were transfected by pRK5 or pRK5-hApo-2DcR (20 μg/plate) and analyzed 18 hours later for activation of NF-κB by Apo-2L (0.5 μg/ml), as in Example 10 below.
HeLa cells were transfected with pRK5 expression plasmids encoding full-length native sequence Apo-2, DR4 or Apo-3 and harvested 24 hours after transfection. Nuclear extracts were prepared and 1 μg of nuclear protein was reacted with a ^32P-labelled NF-κB-specific synthetic oligonucleotide probe […] (SEQ ID NO: 12) [see, also, MacKay et al., J. Immunol., 153:5274-5284 (1994)], alone or together with a 50-fold excess of unlabelled probe, or with an irrelevant ^32P-labelled synthetic oligonucleotide […] (SEQ ID NO: 13). In some samples, antibody to p65/RelA subunits of NF-κB (1 μg/ml; Santa Cruz Biotechnology) was added. DNA binding was analyzed by an electrophoretic mobility shift assay as described by Hsu et al., supra; Marsters et al., supra, and MacKay et al., supra.

NF-κB [2] = test: NF-κB activation in HeLa cells transfected with receptor plasmids (electrophoretic mobility shift assay); format: cell-based, human; conditions: harvested 24 hours after transfection, FIG. 12A
Procedure: HeLa cells were transfected with pRK5 expression plasmids encoding full-length native sequence Apo-2, DR4 or Apo-3 and harvested 24 hours after transfection. […] Immunol., 153:5274-5284 (1994)], alone or together with a 50-fold excess of unlabelled probe, or with an irrelevant ^32P-labelled synthetic oligonucleotide […] NO: 13). In some samples, antibody to p65/RelA subunits of NF-κB (1 μg/ml; Santa Cruz Biotechnology) was added. DNA binding was analyzed by an electrophoretic mobility shift assay as described by Hsu et al., supra; Marsters et al., supra, and MacKay et al., supra.

Molecule	amount of specific Apo-2L binding (Apo-2L)	responsiveness to Apo-2L as measured by apoptosis induction (Human 293 cells)	Apo-2L function as measured by NF-κB activation (NF-κB [1])	NF-κB activation upon transfection (NF-κB [2])
B1	marked increase	markedly reduced	inhibits Apo-2L function	–
B2	–	–	–	activation observed
